From patent US20260355328A1, “A complex comprising a cargo and a targeting moiety binding intelectin-1” (Stichting Radboud universitair medisch centrum, priority 2022, published 2026)
Entries after “also recorded” stand apart in the source; their conditions may differ.

How the values were obtained:
ITLN-1 = details: intestinal epithelial cells, literature; cited from earlier work
[1] = literature; cited from earlier work
[2] = literature; cited from earlier work; remark: listed apart in the source
[3] = Biodistribution of full-length lactoferrin, lactoferricin and hLF-6 in LPS-challenged mice (IVIS); assay type: in vivo; details: fluorescent label, i.v., 2 h
Experimental: Lactoferrin and lactoferricin are cloned in an expression plasmid containing the C-terminal Sortase-sequence protein-LPETG-HHHHHH. LPETGHHHHHH is SEQ ID NO: 98. Next, the protein is expressed overnight in E. coli and purified from sonicated bacterial cell lysates by Ni-NTA beads using 400 mM imidazole to elute the proteins. After overnight dialysis, full-length lactoferrin and hLF-6 are labelled by means of a Sortase exchange reaction on the C-terminus with a fluorescent dye (Alexa647 or Cy5.5) for 2 h at 4 °C using a fluorescently labelled donor peptide (formula:biotin-GSSG-LPETG-label or biotin-GSSG-LPETG-PEG40k-label) as substrate GSSGLPETG is SEQ ID NO: 99. Excess donor peptide is removed by means of streptavidin binding of the biotin tag on the N-terminus of the donor peptide. Next, the purified labelled protein/peptide is injected into LPS-challenged mice via intravenous injection in the tail vein. Mice are sacrificed after 2 h, and organs harvested for imaging by IVIS. Biodistribution is quantified for each organ, and relative distribution is shown.

B1: full-length lactoferrin: full-length human lactoferrin protein (protein, UniProt P02788 1-710, looked up)
chain: MKLVFLVLLFLGALGLCLAGRRRSVQWCAVSQPEATKCFQWQRNMRKVRGPPVSCIKRDSPIQCIQAIAENRADAVTLDGGFIYEAGLAPYKLRPVAAEVYGTERQPRTHYYAVAVVKKGGSFQLNELQGLKSCHTGLRRTAGWNVPIGTLRPFLNWTGPPEPIEAAVARFFSASCVPGADKGQFPNLCRLCAGTGENKCAFSSQEPYFSYSGAFKCLRDGAGDVAFIRESTVFEDLSDEAERDEYELLCPDNTRKPVDKFKDCHLARVPSHAVVARSVNGKEDAIWNLLRQAQEKFGKDKSPKFQLFGSPSGQKDLLFKDSAIGFSRVPPRIDSGLYLGSGYFTAIQNLRKSEEEVAARRARVVWCAVGEQELRKCNQWSGLSEGSVTCSSASTTEDCIALVLKGEADAMSLDGGYVYTAGKCGLVPVLAENYKSQQSSDPDPNCVDRPVEGYLAVAVVRRSDTSLTWNSVKGKKSCHTAVDRTAGWNIPMGLLFNQTGSCKFDEYFSQSCAPGSDPRSNLCALCIGDEQGENKCVPNSNERYYGYTGAFRCLAENAGDVAFVKDVTVLQNTDGNNNEAWAKDLKLADFALLCLDGKRKPVTEARSCHLAMAPNHAVVSRMDKVERLKQVLLHQQAKFGRNGSDCPDKFCLFQSETKNLLFNDNTECLARLHGKTTYEKYLGPQYVAGITNLKKCSTSPLLEACEFLRK
modifications: full-length
notes: full-length human lactoferrin protein
Q: For B1, which “uptake upon overexpression of ITLN-1” value (ITLN-1) is on record?
A: increases uptake of lactoferrin in endosomes

Q: What about the “biodistribution of radioactive-labelled full-length protein” value [1] of the same molecule?
A: comprise multiple organs and not primarily the kidney; also recorded: distribution to many organs

Q: What about the ribonuclease activity [2] of the same molecule?
A: pyrimidine-specific ribonuclease activity

Q: And the bio-distribution [3]?
A: accumulation predominantly in liver and spleen and less in kidney, brain and intestine
